Common to all, as to assay: native gel or EMSA
Experiment [1] addresses ConC-NFL Env trimer (stabilized HIV-1 clade C consensus, native flexible linker variant, with G473T) (HIV-1 clade C consensus).
Experiment [2] has as its target ConC-NtCC Env trimer (stabilized HIV-1 clade C consensus NFL variant with the N-terminal coupling tag CAAC and (G4S)3 linker, with G473T) (HIV-1 clade C consensus).
In experiment [3] the target is BG505-NtCC Env trimer (NFL variant with the N-terminal cysteine-containing coupling tag CAAC and (G4S)3 linker) (HIV-1 (BG505)).
In experiment [4] the target is BG505-NFL Env trimer (native flexible linker variant, C-terminal hexahistidine tag) (HIV-1 (BG505)).
Experiment [5] deals with BG505-SOSIP Env trimer (BG505 SOSIP.664 sequence, mini-tPA signal sequence, C-terminal hexahistidine tag) (HIV-1 (BG505)).
In experiment [6] the target is ConC-SOSIP Env trimer (stabilized HIV-1 clade C consensus, ConCv5 KIKO, with G473T) (HIV-1 clade C consensus).

Here are results for six substances from article PMC8230641.

As a reminder, the stoichiometry N is a count of units in the complex or per binding partner.

“ConC-NFL Env trimer (stabilized HIV-1 clade C consensus, native flexible linker variant, with G473T)” showed a stoichiometry N in experiment [1] of 3.

In turn, “ConC-NtCC Env trimer (stabilized HIV-1 clade C consensus NFL variant with the N-terminal coupling tag CAAC and (G4S)3 linker, with G473T)” returned a stoichiometry N in experiment [2] of 3.

The substance “BG505-NtCC Env trimer (NFL variant with the N-terminal cysteine-containing coupling tag CAAC and (G4S)3 linker) (domain or fragment)” came in with a stoichiometry N in experiment [3] of 3.

In experiment [4], “BG505-NFL Env trimer (native flexible linker variant, C-terminal hexahistidine tag) (domain or fragment)” displayed a stoichiometry N of 3.

With “BG505-SOSIP Env trimer (BG505 SOSIP.664 sequence, mini-tPA signal sequence, C-terminal hexahistidine tag) (complex)”, the stoichiometry N in experiment [5] stood at 3.

Substance “ConC-SOSIP Env trimer (stabilized HIV-1 clade C consensus, ConCv5 KIKO, with G473T) (complex)” showed a stoichiometry N in experiment [6] of 3.
